Tests used:
Saccharomyces cerevisiae [1] = test: protein stability index of tFT-peptide fusion in wild type (PSI (0-1 scale)); higher = more stable (slower turnover); conditions: genetic background: wild type
Protocol: (§1)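 MPS profiling in S. cerevisiae of two library types built from selected 12-aa C-degron peptides (IN1, IN2, LN1, LN3, VN2, R1-R5, W1-W3, Atg1 and Rpa12 C-termini): saturation mutagenesis libraries and C-terminal +1 capping libraries (13 aa). Each peptide is fused to the C-terminus of a sfGFP-mCherry timer, after a GGGS linker. Cells are FACS-sorted into 8 mCherry/sfGFP bins and sequenced. PSI runs from 0 (unstable) to 1 (stable), measured once in wild type and in the das1Δ or doa10Δ background.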

Saccharomyces cerevisiae [2] = test: protein stability index of tFT-peptide fusion in deletion strain of DAS1 (PSI (0-1 scale)); higher = more stable (slower turnover)
Protocol: as §1
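Throughout, for protein stability index of tFT-peptide fusion in deletion strain of DAS1: PSI is a weighted mean of each variant's read distribution over the sorted stability bins, computed only for variants having over 10 reads in total.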
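Throughout, for protein stability index of tFT-peptide fusion in wild type: PSI derived as read-weighted mean over the 8 sorting bins, only variants exceeding 10 total reads kept, mCherry placed adjacent to the peptide and sfGFP distal.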

| Sequence | protein stability index (Saccharomyces cerevisiae [1]) | protein stability index (Saccharomyces cerevisiae [2]) |
| --- | --- | --- |
| FPMRWTFRYWVN | 0.062 | 0.574 |
| FSHRWTFRYWVN | 0.0512 | 0.568 |
| FSLAASFWRVVG | 0.121 | 0.671 |
| FSMNWTFRYWVN | 0.0654 | 0.496 |
| FSMQWTFRYWVN | 0.0371 | 0.466 |
| FSMRMTFRYWVN | 0.0474 | 0.464 |
| FSMRWTFGYWVN | 0.0637 | 0.404 |
| FSMRWTFMYWVN | 0.0968 | 0.456 |
| FSMRWTFQYWVN | 0.0522 | 0.502 |
| FSMRWTFRLWVN | 0.028 | 0.291 |
| FSMRWTFRNWVN | 0.0567 | 0.589 |
| FSMRWTFRYAVN | 0.158 | 0.585 |
| FSMRWTFRYWVNA | 0.163 | 0.496 |
| FSMRWTFVYWVN | 0.0513 | 0.327 |
| FSMRWTKRYWVN | 0.0745 | 0.545 |
| FSMRWVFRYWVN | 0.077 | 0.495 |
| FSMVWTFRYWVN | 0.0843 | 0.314 |
| FSQRWTFRYWVN | 0.0417 | 0.563 |
| GKILRQKMNHQN | 0.263 | 0.677 |
| HRWRVGLWRGAS | 0.457 | 0.676 |
| IRWRVGLWRGAS | 0.163 | 0.707 |
| KGHKKGQKQKIN | 0.108 | 0.57 |
| KKAKKGQKQKIN | 0.106 | 0.624 |

| Sequence | protein stability index (Saccharomyces cerevisiae [1]) | protein stability index (Saccharomyces cerevisiae [2]) |
| --- | --- | --- |
| KKHDKGQKQKIN | 0.0762 | 0.587 |
| KKHKGGQKQKIN | 0.0809 | 0.584 |
| KKHKKGQKDKIN | 0.652 | 0.63 |
| KKHKKGQKQKGN | 0.61 | 0.616 |
| KKHKKGQKQKINI | 0.649 | 0.661 |
| KKHKKGQKQKINV | 0.647 | 0.657 |
| KKHKKGQKQKINY | 0.643 | 0.663 |
| KKHKKGQKQKIR | 0.676 | 0.595 |
| KKHKKGQKQKVN | 0.208 | 0.599 |
| KKHKKGQKQKWN | 0.305 | 0.587 |
| KKHKKGQKQQIN | 0.404 | 0.554 |
| KKHKKGQKRKIN | 0.275 | 0.655 |
| KKHKKGQQQKIN | 0.162 | 0.571 |
| KKHKKGSKQKIN | 0.0787 | 0.673 |
| KKHKKHQKQKIN | 0.0431 | 0.521 |
| KKHKKIQKQKIN | 0.0571 | 0.631 |
| KKHKKMQKQKIN | 0.027 | 0.571 |
| KKHKKWQKQKIN | 0.0352 | 0.585 |
| KKHKQGQKQKIN | 0.0536 | 0.73 |
| KKHKRGQKQKIN | 0.0579 | 0.617 |
| KKHNKGQKQKIN | 0.0428 | 0.645 |
| KKHVKGQKQKIN | 0.0752 | 0.606 |
| LAILRQKMNHQN | 0.137 | 0.67 |

| Sequence | protein stability index (Saccharomyces cerevisiae [1]) | protein stability index (Saccharomyces cerevisiae [2]) |
| --- | --- | --- |
| LHVYLSCVACIN | 0.0172 | 0.109 |
| LKIARQKMNHQN | 0.277 | 0.694 |
| LKIDRQKMNHQN | 0.241 | 0.676 |
| LKILNQKMNHQN | 0.395 | 0.688 |
| LKILRQKANHQN | 0.373 | 0.688 |
| LKILRQKMNFQN | 0.225 | 0.674 |
| LKILRQKMNHCN | 0.191 | 0.669 |
| LKILRQKMNHQNV | 0.669 | 0.662 |
| LKILRQKMNHQY | 0.274 | 0.684 |
| LKILRQKMNPQN | 0.689 | 0.677 |
| LKILRQKMNQQN | 0.218 | 0.676 |
| LKILRQKMNYQN | 0.219 | 0.657 |
| LKILRQKMVHQN | 0.19 | 0.657 |
| LKILRQNMNHQN | 0.255 | 0.667 |
| LKILRTKMNHQN | 0.178 | 0.678 |
| LKMLRQKMNHQN | 0.171 | 0.683 |
| LMILRQKMNHQN | 0.166 | 0.676 |
| LQVYLSCVACIN | 0.0249 | 0.0994 |
| LRVYLSCVACIN | 0.0194 | 0.121 |
| LTSCGYKFRTNN | 0.197 | 0.666 |
| LVCYLSCVACIN | 0.0123 | 0.0279 |
| LVHYLSCVACIN | 0.0263 | 0.188 |
| LVTYLSCVACIN | 0.0357 | 0.167 |

| Sequence | protein stability index (Saccharomyces cerevisiae [1]) | protein stability index (Saccharomyces cerevisiae [2]) |
| --- | --- | --- |
| LVVRLSCVACIN | 0.0177 | 0.0347 |
| LVVTLSCVACIN | 0.0146 | 0.0408 |
| LVVYLFCVACIN | 0.0137 | 0.0277 |
| LVVYLMCVACIN | 0.0154 | 0.0335 |
| LVVYLSCDACIN | 0.144 | 0.191 |
| LVVYLSCGACIN | 0.283 | 0.3 |
| LVVYLSCVACIA | 0.0168 | 0.0258 |
| LVVYLSCVACIK | 0.0121 | 0.0213 |
| LVVYLSCVACIL | 0.0189 | 0.032 |
| LVVYLSCVACINC | 0.0649 | 0.0918 |
| LVVYLSCVACINR | 0.0215 | 0.034 |
| LVVYLSCVACINW | 0.0246 | 0.0403 |
| LVVYLSCVACWN | 0.0216 | 0.0568 |
| LVVYLSCVAPIN | 0.457 | 0.449 |
| LVVYLSCVGCIN | 0.244 | 0.293 |
| LVVYLSCVNCIN | 0.135 | 0.419 |
| LVVYLSCVRCIN | 0.109 | 0.335 |
| LVVYLSCVYCIN | 0.0441 | 0.158 |
| LVVYLSCWACIN | 0.02 | 0.0504 |
| LVVYLSCYACIN | 0.0136 | 0.0478 |
